These results are taken from patent US20040265918A1.

In assay [1] the target is p29^GFP-labeled vesicles (vesicles carrying a GFP-tagged p29 fusion protein) [GFP: P42212]. Kind of assay: competition with native myosin V in the p29^GFP vesicle / F-actin binding assay, 10 nM T4, ~2-3 pmol polypeptide.
The target in assay [2] is p29 vesicles (vesicles carrying p29, the substrate binding subunit of type II iodothyronine 5'-deiodinase, D2) (rat) (UniProt Q62876). The assay can be described thus: in vitro actin binding assay, competition with native F-actin-bound myosin V, 10 nM T4.
Assay [3] has as its target F-actin (actin cytoskeleton of rat astrocytes, Triton-insoluble fraction) (rat). Kind of assay: in vitro actin binding assay, Triton fractionation, gamma counting and SDS-PAGE.
Assay [4] shares this target. The assay can be described thus: in vitro actin binding assay (F-lysate plus V-lysate, Triton fractionation, SDS-PAGE).
The target is the same in assay [5]. The assay can be described thus: in vitro actin binding assay, release after 0.1 mM Ca^2+, 1 mM Mg^2+, 0.1 mM ATP.
For assay [6] the target is unchanged. Kind of assay: in vitro actin binding assay, release with 5 mM EGTA.
For assay [7] the target is unchanged. The assay can be described thus: F-lysate plus V-lysate with p29^GFP vesicles, fluorescence of the Triton-insoluble pellet.

For the substance “? myosin V^tail (entire myosin V tail, residues 953 to 1852) (from UniProt Q99104 953-1852)”, the percent decrease of p29 binding to F-actin in assay [1] was > 75%. In assay [2], the percent of the T4-dependent binding of p29 vesicles to F-actin blocked (5 µl) was found to be 50% and the percent of the p29 binding blocked (10 µl) is > 95%.

Turning to “? myosin ^1513 (residues 1513-1852) (from UniProt Q99104 1513-1852)”, in assay [1], the percent decrease of T4-dependent p29 binding was > 75%.

For the substance “? myosin ^1767 (residues 1767-1852) (from UniProt Q99104 1767-1852)”, the percent decrease of T4-dependent p29 binding in assay [1] is > 75%.

As for “? myosin ^1830 (residues 1830-1852) (from UniProt Q99104 1830-1852) (peptide)”, the percent decrease of T4-dependent p29 binding in assay [1] is > 75%.

“p29 vesicles (vesicles carrying p29, the substrate binding subunit of type II iodothyronine 5'-deiodinase, D2) (from UniProt Q62876 1-234)”: in assay [3], the percent of total p29 vesicles bound to F-actin (after 10 nM T4) stood at 80%. For the same substance, in assay [4], the percent of p29 remaining in the non-actin bound, Triton-soluble fraction (10 nM T3) is > 90% and the percent of radiolabeled p29 bound to the Triton insoluble, F-actin fraction (10 nM T4) is > 70%. In assay [5], the percent of p29 vesicles released from F-actin by Ca^2+, Mg^2+ and ATP came to 70%. Besides, the percent of the Ca^2+-stimulated release of p29 from F-actin blocked by EGTA in assay [6] was > 50%.

Consider “p29^GFP-labeled vesicles (vesicles carrying a GFP-tagged p29 fusion protein) (from UniProt P42212 1-238)”, for which, in assay [7], the percent increase in p29^GFP vesicle binding to F-actin at 100 nM T3 fell in the range of 10 to 20%.
